Measurements as given in patent US12678474B2, “Screening of fixed-point coupling sites of cysteine-modified antibody-toxin conjugate (TDC)” (SICHUAN BAILI PHARMACEUTICAL CO. LTD., priority 2017, dated 2026).

Tests used:
[1] = molecular target: T1, Recombinant EGFRVIII-His*6 antigen (Homo sapiens, UniProt P00533, DELINS30-297G); assay: ELISA relative affinity for EGFRvIII; format: binding; details: for EC50: EGFRvIII-coated plates, A450, read-out: EC50 (nM), mutant antibody affinity
T1 construct: His*6
Description: Insertion Mutation Modification and Parent Antibody 2A1 for EGFRvIII • ELISA was used to compare the relative affinities of 2A1-LC-Cys110ins-mc-vc-PAB-MMAE TDC, 2A1-LC-Cys111ins-mc-vc-PAB-MMAE TDC, 2A1-LC-Cys142ins-mc-vc-PAB-MMAE TDC, 2A1-HC-Cys254ins-mc-vc-PAB-MMAE TDC, 2A1-HC-Cys255ins-mc-vc-PAB-MMAE TDC, 2A1-HC-Cys258ins-mc-vc-PAB-MMAE TDC, 2A1-HC-Cys259ins-mc-vc-PAB-MMAE TDC, 2A1-HC-Cys354ins-mc-vc-PAB-MMAE TDC, 2A1-HC-Cys355ins-mc-vc-PAB-MMAE TDC, 2A1-HC-Cys357ins-mc-vc-PAB-MMAE TDC, 2A1-HC-Cys378ins-mc-vc-PAB-MMAE TDC, 2A1-HC-Cys379ins-mc-vc-PAB-MMAE TDC, 2A1-HC-Cys386ins-mc-vc-PAB-MMAE TDC, 2A1-HC-Cys387ins-mc-vc-PAB-MMAE TDC, 2A1-HC-Cys410ins-mc-vc-PAB-MMAE TDC, and 2A1 for EGFRvIII. The specific process used was as follows:
Recombinant […]-His*6 antigen was used to coat plates; fish skin gelatin was used as a seal; dilution of each insertion mutant antibody was performed separately, up to a maximum concentration 10 μg/ml and a 4-fold gradient dilution was performed for a total of 11 concentrations; HRP-labeled secondary antibodies were used for incubation; TMB was used for development and absorption detection was performed at 450 nm.

[2] = tested on: EGFRwt-overexpressing human skin squamous cell carcinoma cell line A431; assay: MTS cytotoxicity (cell viability) assay, A431; format: cell-based; details: antibodies; 72 hours
Procedure: (§1) TDC cytotoxic activity was determined via the following experimental procedure: TDC was added to EGFR-overexpressing or […]-expressing human tumor cell culture medium, and cell viability was determined after 72 hours of cell culture. Cell-based in vitro experiments were used to determine cell viability, cytotoxicity and programmed cell death induced by TDC constituted by the present invention.
(§2) In vitro efficacy of antibody-toxin conjugates was determined via a cell proliferation assay. A CellTiter ^96® AqueousOne Solution Cell was Proliferation Assay purchased commercially from Promega Corp. (Madison, WI). CellTiter ^96® Aqueous One Solution Cell Proliferation Assay (a) is a colorimetric method used to detect the number of living cells in cell proliferation and cytotoxicity experiments. The above reagent contains the novel tetrazole compound [3-(4,5-dimethylthiazol-2-yl)-5-(3-carboxymethoxyphenyl)-2-(4-sulfophenyl)-2H-tetrazolium, inner salt; MTS) as well as an electronic coupling agent (phenazine ethosulfate; PES). […] This convenient “single solution” model is an improvement on the first generation of the CellTiter ^96® Aqueous Assay, in which the electronic coupling agent PMS was supplied separately from the MTS solution. MTS (Owen's reagent) is reduced by cellular organisms into a colored formazan product, which can be directly dissolved in culture medium (FIG. 1). This conversion is likely facilitated by NADPH NADH produced by dehydrogenase present in metabolically active cells. For the assay, a small amount of CellTiter ^96® Aqueous One Solution Reagent is added directly to the medium present in the wells of the culture plate, after which incubation is performed for 1 to 4 hours, followed by reading of the absorbance value at 490 nm using a microplate reader.
(§3) The amount of formazan product detected at 490 nm is proportional to the number of viable cells in culture. Because the formazan product of MTS is soluble in tissue culture medium, CellTiter ^96® Aqueous One Solution Assay requires fewer steps than the MTT or INT methods. A431 (EGFR-overexpressing cells) and U87-[…] (an […] mutant stable cell line) were used in the present invention as an investigative system for performing in vitro efficacy assays. In 96-well plates, cells were plated at 6000 cells/well and 24 hours later, antibody spiking was carried out. […] Cell viability was assayed via MTS 72 hours after treatment.

[3] = tested on: EFGRvIII-overexpressing human glioma cell line U87-EGFRvIII; assay: MTS cytotoxicity (cell viability) assay, U87-EGFRvIII; format: cell-based; details: antibodies; 72 hours; read-out: IC50, U87MG-EGFRvIII (MTS)
Procedure: as §1, §2, §3

B1: 2A1-HC-Cys259ins: 2A1 antibody with cysteine inserted at heavy chain position 259 (SEQ ID NO: 28) (antibody)
heavy: DVQLQESGPSLVKPSQSLSLTCTVTGYSITSDFAWNWIRQFPGNKLEWMGYISYSGNTRYNPSLKSRISITRDTSKNQFFLQLNSVTIEDTATYYCVTAGRGFPYWGQGTLVTVSAASTKGPSVFPLAPSSKSTSGGTAALGCLVKDYFPEPVTVSWNSGALTSGVHTFPAVLQSSGLYSLSSVVTVPSSSLGTQTYICNVNHKPSNTKVDKRVEPKSCDKTHTCPPCPAPEFLGGPSVFLFPPKPKDTLMISRTPEVTCVCVVDVSHEDPEVKFNWYVDGVEVHNAKTKPREEQYNSTYRVVSVLTVLHQDWLNGKEYKCKVSNKALPAPIEKTISKAKGQPREPQVYTLPPSRDELTKNQVSLTCLVKGFYPSDIAVEWESNGQPENNYKTTPPVLDSDGSFFLYSKLTVDKSRWQQGNVFSCSVMHEALHNHYTQKSLSLSPG
light: DILMTQSPSSMSVSLGDTVSITCHSSQDINSNIGWLQQRPGKSFKGLIYHGTNLDDEVPSRFSGSGSGADYSLTISSLESEDFADYYCVQYAQFPWTFGGGTKLEIKRTVAAPSVFIFPPSDEQLKSGTASVVCLLNNFYPREAKVQWKVDNALQSGNSQESVTEQDSKDSTYSLSSTLTLSKADYEKHKVYACEVTHQGLSSPVTKSFNRGEC
B1 was tested, and the “Affinity for EGFRvIII relative to 2A1 (in words)” value [1] was “maintained 2A1 affinity”, the EC50 [1] was 0.0431 nM and the IC50 [2] was over 10 µM. The IC50 [3] was over 10 µM.

B2: 2A1-HC-Cys355ins: 2A1 antibody with cysteine inserted at heavy chain position 355 (SEQ ID NO: 32) (antibody)
heavy: DVQLQESGPSLVKPSQSLSLTCTVTGYSITSDFAWNWIRQFPGNKLEWMGYISYSGNTRYNPSLKSRISITRDTSKNQFFLQLNSVTIEDTATYYCVTAGRGFPYWGQGTLVTVSAASTKGPSVFPLAPSSKSTSGGTAALGCLVKDYFPEPVTVSWNSGALTSGVHTFPAVLQSSGLYSLSSVVTVPSSSLGTQTYICNVNHKPSNTKVDKRVEPKSCDKTHTCPPCPAPEFLGGPSVFLFPPKPKDTLMISRTPEVTCVVVDVSHEDPEVKFNWYVDGVEVHNAKTKPREEQYNSTYRVVSVLTVLHQDWLNGKEYKCKVSNKALPAPIEKTISKAKGQPREPQVYTLPPSRDELCTKNQVSLTCLVKGFYPSDIAVEWESNGQPENNYKTTPPVLDSDGSFFLYSKLTVDKSRWQQGNVFSCSVMHEALHNHYTQKSLSLSPG
light: DILMTQSPSSMSVSLGDTVSITCHSSQDINSNIGWLQQRPGKSFKGLIYHGTNLDDEVPSRFSGSGSGADYSLTISSLESEDFADYYCVQYAQFPWTFGGGTKLEIKRTVAAPSVFIFPPSDEQLKSGTASVVCLLNNFYPREAKVQWKVDNALQSGNSQESVTEQDSKDSTYSLSSTLTLSKADYEKHKVYACEVTHQGLSSPVTKSFNRGEC
With B2 the “Affinity for EGFRvIII relative to 2A1 (in words)” value [1] was “maintained 2A1 affinity”, the EC50 [1] was 0.0415 nM and the IC50 [2] was over 10 µM. The IC50 [3] was over 10 µM.

B3: 2A1-HC-Cys378ins: 2A1 antibody with cysteine inserted at heavy chain position 378 (SEQ ID NO: 36) (antibody)
heavy: DVQLQESGPSLVKPSQSLSLTCTVTGYSITSDFAWNWIRQFPGNKLEWMGYISYSGNTRYNPSLKSRISITRDTSKNQFFLQLNSVTIEDTATYYCVTAGRGFPYWGQGTLVTVSAASTKGPSVFPLAPSSKSTSGGTAALGCLVKDYFPEPVTVSWNSGALTSGVHTFPAVLQSSGLYSLSSVVTVPSSSLGTQTYICNVNHKPSNTKVDKRVEPKSCDKTHTCPPCPAPEFLGGPSVFLFPPKPKDTLMISRTPEVTCVVVDVSHEDPEVKFNWYVDGVEVHNAKTKPREEQYNSTYRVVSVLTVLHQDWLNGKEYKCKVSNKALPAPIEKTISKAKGQPREPQVYTLPPSRDELTKNQVSLTCLVKGFYPSDIAVEWCESNGQPENNYKTTPPVLDSDGSFFLYSKLTVDKSRWQQGNVFSCSVMHEALHNHYTQKSLSLSPG
light: DILMTQSPSSMSVSLGDTVSITCHSSQDINSNIGWLQQRPGKSFKGLIYHGTNLDDEVPSRFSGSGSGADYSLTISSLESEDFADYYCVQYAQFPWTFGGGTKLEIKRTVAAPSVFIFPPSDEQLKSGTASVVCLLNNFYPREAKVQWKVDNALQSGNSQESVTEQDSKDSTYSLSSTLTLSKADYEKHKVYACEVTHQGLSSPVTKSFNRGEC
B3 was tested, and the EC50 [1] was 0.0404 nM, the IC50 [2] was over 10 µM and the IC50 [3] was over 10 µM.

B4: 2A1-HC-Cys354ins: 2A1 antibody with cysteine inserted at heavy chain position 354 (SEQ ID NO: 30) (antibody)
heavy: DVQLQESGPSLVKPSQSLSLTCTVTGYSITSDFAWNWIRQFPGNKLEWMGYISYSGNTRYNPSLKSRISITRDTSKNQFFLQLNSVTIEDTATYYCVTAGRGFPYWGQGTLVTVSAASTKGPSVFPLAPSSKSTSGGTAALGCLVKDYFPEPVTVSWNSGALTSGVHTFPAVLQSSGLYSLSSVVTVPSSSLGTQTYICNVNHKPSNTKVDKRVEPKSCDKTHTCPPCPAPEFLGGPSVFLFPPKPKDTLMISRTPEVTCVVVDVSHEDPEVKFNWYVDGVEVHNAKTKPREEQYNSTYRVVSVLTVLHQDWLNGKEYKCKVSNKALPAPIEKTISKAKGQPREPQVYTLPPSRDECLTKNQVSLTCLVKGFYPSDIAVEWESNGQPENNYKTTPPVLDSDGSFFLYSKLTVDKSRWQQGNVFSCSVMHEALHNHYTQKSLSLSPG
light: DILMTQSPSSMSVSLGDTVSITCHSSQDINSNIGWLQQRPGKSFKGLIYHGTNLDDEVPSRFSGSGSGADYSLTISSLESEDFADYYCVQYAQFPWTFGGGTKLEIKRTVAAPSVFIFPPSDEQLKSGTASVVCLLNNFYPREAKVQWKVDNALQSGNSQESVTEQDSKDSTYSLSSTLTLSKADYEKHKVYACEVTHQGLSSPVTKSFNRGEC
B4 was tested, and the “Affinity for EGFRvIII relative to 2A1 (in words)” value [1] was “maintained 2A1 affinity”, the EC50 [1] was 0.0405 nM and the IC50 [2] was over 10 µM. For the same molecule, the IC50 [3] was over 10 µM.

B5: 2A1-HC-Cys357ins: 2A1 antibody with cysteine inserted at heavy chain position 357 (SEQ ID NO: 34) (antibody)
heavy: DVQLQESGPSLVKPSQSLSLTCTVTGYSITSDFAWNWIRQFPGNKLEWMGYISYSGNTRYNPSLKSRISITRDTSKNQFFLQLNSVTIEDTATYYCVTAGRGFPYWGQGTLVTVSAASTKGPSVFPLAPSSKSTSGGTAALGCLVKDYFPEPVTVSWNSGALTSGVHTFPAVLQSSGLYSLSSVVTVPSSSLGTQTYICNVNHKPSNTKVDKRVEPKSCDKTHTCPPCPAPEFLGGPSVFLFPPKPKDTLMISRTPEVTCVVVDVSHEDPEVKFNWYVDGVEVHNAKTKPREEQYNSTYRVVSVLTVLHQDWLNGKEYKCKVSNKALPAPIEKTISKAKGQPREPQVYTLPPSRDELTKCNQVSLTCLVKGFYPSDIAVEWESNGQPENNYKTTPPVLDSDGSFFLYSKLTVDKSRWQQGNVFSCSVMHEALHNHYTQKSLSLSPG
light: DILMTQSPSSMSVSLGDTVSITCHSSQDINSNIGWLQQRPGKSFKGLIYHGTNLDDEVPSRFSGSGSGADYSLTISSLESEDFADYYCVQYAQFPWTFGGGTKLEIKRTVAAPSVFIFPPSDEQLKSGTASVVCLLNNFYPREAKVQWKVDNALQSGNSQESVTEQDSKDSTYSLSSTLTLSKADYEKHKVYACEVTHQGLSSPVTKSFNRGEC
B5 was tested, and the EC50 [1] was 0.0403 nM, the IC50 [2] was over 10 µM and the IC50 [3] was over 10 µM.
